For orientation: Kd means the concentration at which binding is half-saturated.

Consider 4 molecules from patent US20230295226A1 (FLORIDA ATLANTIC UNIVERSITY BOARD OF TRUSTEES, published 2023).

Assay [1] deals with T1, asialofetuin (UniProt P12763 19-359, limits assumed, glycoprotein; desialylated glycans, described as L-fucose bearing).
T1 construct: also called L-fucose bearing asialofetuin; model glycoprotein
T1 sequence (looked up): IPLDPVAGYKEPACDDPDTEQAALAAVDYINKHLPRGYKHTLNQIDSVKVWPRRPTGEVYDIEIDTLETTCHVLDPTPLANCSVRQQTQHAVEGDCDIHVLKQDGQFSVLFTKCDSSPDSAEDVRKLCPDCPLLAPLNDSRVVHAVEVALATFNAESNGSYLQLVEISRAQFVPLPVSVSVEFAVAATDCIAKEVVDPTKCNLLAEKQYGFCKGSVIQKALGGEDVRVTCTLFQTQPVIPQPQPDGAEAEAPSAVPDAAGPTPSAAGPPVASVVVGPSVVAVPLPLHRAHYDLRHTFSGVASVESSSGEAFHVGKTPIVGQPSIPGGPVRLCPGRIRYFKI
Put plainly: ITC.

Assay [2] concerns the target T2, delta opioid receptor (DOR).
T2 construct: the library screen elsewhere used human clones in CHO cells
Put plainly: protein binding radioassay.

A further assay concerns the target T3, mu opioid receptor (MOR).
T3 construct: see m11 for the human receptor of the library screen
Put plainly: protein binding radioassay.

For assay [3], the target named is T1, asialofetuin. The assay is described as follows: ITC, as cited in the text from Table 1; conflicts with Table 1, which prints 6.4 × 10^4 nM for OL and 4.2 × 10^4 nM for DADLE-OL. For orientation: In ITC the heat of successive injections is recorded.
The target in assay [4] is T4, kappa opioid receptor (KOR).
T4 construct: see m12 for the human receptor of the library screen
The assay is described as follows: protein binding radioassay.

Bridges are numbered along the chain shown (N, C = ends). Where no end group is shown, it is not given here. [ ]: non-standard residue; d: D form.

B1: Control peptide (scrambled OL sequence) (peptide)
peptide: RVFSLCNATYPYKGACP
modifications: disulfide 6-16
With B1, in the assay with asialofetuin [1], the Kd stood at 760 µM.

B2: DADLE-OL (peptide)
peptide: YASPKCFRY[dA]GF[dL]LACT
modifications: disulfide 6-16
Regarding B2, the Kd with asialofetuin [1] worked out at 42 µM; in assay [2] it was 0.064 µM; with mu opioid receptor (MOR) it was 3.54 µM.

B3: Odorranalectin (OL) (peptide)
peptide: YASPKCFRYPNGVLACT
modifications: disulfide 6-16
notes: Synthetic copy of the natural product; on-resin disulfide formation by I2 oxidation; also called unmodified OL; OL natural product
For B3, the Kd with asialofetuin [1] was found to be 64 µM; with asialofetuin [3], 42 µM.

B4: DADLE-OL II (peptide)
peptide: Y[dA]GF[dL]KCFRYPNGVLACT
modifications: disulfide 7-17
Regarding B4, the Kd in the assay with asialofetuin [1] was 33 µM; in assay [4], 1.08 µM; in assay [2], 0.275 µM; in the assay with mu opioid receptor (MOR), 0.123 µM.
